Data published in the supplement of paper PMC12855868.

B1: library; numbered along this chain (parent)
chain: MAAAGGARLLRAASAVLGGPAGRWLHHAGSRAGSSGLLRNRGPGGSAEASRSLSVSARARSSSEDKITVHFINRDGETLTTKGKVGDSLLDVVVENNLDIDGFGACEGTLACSTCHLIFEDHIYEKLDAITDEENDMLDLAYGLTDRSRLGCQICLTKSMDNMTVRVPETVADARQSIDVGKTS

Variants of: B1
Experiment: scaled log2 fold change in cell abundance, elesclomol vs control (0 = silent mean, 1 = nonsense mean) (scaled log2 ratio); higher = higher viability under elesclomol (loss of FDX1 cuproptosis function)
Conditions: with ABC1 FDX1 KO; elesclomol 5 nM; glucose 10 mM; 14 days
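Note: variant abundance is its share of total variant reads in each endpoint sample, from next-generation sequencing of the integrated ORF PCR-amplified out of genomic DNA.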

Row | Variant | scaled log2 fold change
1 | G181A | -0.623
2 | G181C | -0.0449
3 | G181D | 0.217
4 | G181E | -0.223
5 | G181F | 0.316
6 | G181H | -0.157
7 | G181I | 0.268
8 | G181K | 0.227
9 | G181L | 0.185
10 | G181M | -1.35
11 | G181N | 0.125
12 | G181P | -0.164
13 | G181Q | -0.419
14 | G181R | -0.0624
15 | G181S | 0.113
16 | G181T | 0.225
17 | G181V | -0.396
18 | G181W | 0.226
19 | G181Y | 0.093
20 | K182A | 0.0976
21 | K182C | -0.0381
22 | K182D | 0.0891
23 | K182E | -0.363
24 | K182F | 0.103
25 | K182G | 0.289
26 | K182H | -0.181

Row | Variant | scaled log2 fold change
27 | K182I | 0.114
28 | K182L | -0.0698
29 | K182M | -0.000782
30 | K182N | 0.127
31 | K182P | 0.201
32 | K182Q | 0.399
33 | K182R | -0.345
34 | K182S | 0.0077
35 | K182T | 0.134
36 | K182V | -0.251
37 | K182W | 0.0276
38 | K182Y | 0.0751
39 | T183A | -0.44
40 | T183C | 0.0469
41 | T183D | 0.0532
42 | T183E | -1.02
43 | T183F | 0.0658
44 | T183G | 0.353
45 | T183H | -0.16
46 | T183I | 0.0224
47 | T183K | -0.157
48 | T183L | -0.0402
49 | T183M | -0.197
50 | T183N | -0.0614
51 | T183P | 0.166
52 | T183Q | -0.0766

Row | Variant | scaled log2 fold change
53 | T183R | 0.102
54 | T183S | 0.172
55 | T183V | 0.00691
56 | T183W | -0.19
57 | T183Y | -0.296
58 | S184A | 0.168
59 | S184C | 0.145
60 | S184D | -0.159
61 | S184E | -0.0286
62 | S184F | 0.3
63 | S184G | 0.207
64 | S184H | 0.0751
65 | S184I | 0.126
66 | S184K | -0.0652
67 | S184L | -0.241
68 | S184M | 0.00413
69 | S184N | 0.136
70 | S184P | 0.326
71 | S184Q | -0.0164
72 | S184R | 0.0521
73 | S184T | -0.0663
74 | S184V | 0.362
75 | S184W | 0.0507
76 | S184Y | -0.125

Same assay, conditions: with HEK293T FDX1 KO; elesclomol 40 nM; glucose 10 mM; 11 days

Row | Variant | scaled log2 fold change
77 | G181A | -0.352
78 | G181C | -0.501
79 | G181D | -0.438
80 | G181E | -0.4
81 | G181F | 0.167
82 | G181H | 0.112
83 | G181I | 0.0446
84 | G181K | -0.659
85 | G181M | 0.389
86 | G181P | -0.548
87 | G181Q | -0.21
88 | G181R | 0.814
89 | G181S | 0.902
90 | G181T | -0.186
91 | G181W | 0.364
92 | G181Y | -0.568
93 | K182A | -0.691
94 | K182C | -0.334
95 | K182E | -1.19
96 | K182F | -0.11
97 | K182H | -0.354
98 | K182I | 0.677
99 | K182L | 0.171
100 | K182M | -0.0296
101 | K182N | 0.75
102 | K182Q | -0.145

Row | Variant | scaled log2 fold change
103 | K182R | 0.0141
104 | K182S | -0.584
105 | K182T | -0.0291
106 | K182V | 0.182
107 | K182W | 0.909
108 | K182Y | -0.398
109 | T183A | -0.711
110 | T183C | -0.686
111 | T183D | -0.222
112 | T183E | -0.187
113 | T183F | -0.199
114 | T183G | -1.07
115 | T183H | -0.49
116 | T183I | -0.426
117 | T183K | -0.436
118 | T183L | -0.253
119 | T183M | -0.119
120 | T183R | -0.367
121 | T183S | -0.869
122 | T183V | -0.191
123 | T183W | 0.214
124 | T183Y | 0.0186
125 | S184A | 0.908
126 | S184D | 0.845
127 | S184E | 1.03
128 | S184F | -0.432

Row | Variant | scaled log2 fold change
129 | S184G | -0.25
130 | S184H | -0.0277
131 | S184I | -0.259
132 | S184K | 0.0933
133 | S184L | 0.57
134 | S184M | 0.661
135 | S184N | 0.0759
136 | S184P | 0.83
137 | S184Q | -0.0365
138 | S184R | -0.427
139 | S184T | -0.512
140 | S184V | 0.648
141 | S184W | 0.713
142 | S184Y | 0.879
143 | A4P | -0.59
144 | L9A | 0.241
145 | S14N | 0.029
146 | A15R | -0.519
147 | V16H | 0.416
148 | P20R | 0.465
149 | P20V | 0.328
150 | A21W | 0.402
151 | G22D | 0.368
152 | G22S | 1.21
153 | W24D | -0.665
154 | W24S | -0.637

Row | Variant | scaled log2 fold change
155 | W24Y | 0.0942
156 | L25F | 0.845
157 | H26I | 0.477
158 | H26V | 0.418
159 | G29H | -0.53
160 | G29L | 0.376
161 | G29N | 1.01
162 | G29Q | 0.00954
163 | S30P | -0.513
164 | S30W | -0.103
165 | R31D | 0.39
166 | R31L | -0.385
167 | G33D | 0.213
168 | L37A | 0.765
169 | L37I | 1.2
170 | L37N | -0.668
171 | N40A | 1.14
172 | N40G | -0.0433
173 | N40H | -0.707
174 | S50F | -0.396
175 | S50V | -0.0587
176 | R51I | 0.315
177 | V55A | -0.0113
178 | A57P | -0.118
179 | R60D | 0.0454
180 | S61A | 0.782

Row | Variant | scaled log2 fold change
181 | S61H | 1.68
182 | S61L | 0.17
183 | S61T | 0.136
184 | S62P | 0.152
185 | S62V | -0.946
186 | D75G | 0.0557
187 | D75P | -0.0681
188 | G76W | -0.575
189 | T78A | -1.2
190 | T78F | -0.765
191 | S88D | 0.11
192 | S88H | -0.0956
193 | S88K | -0.315
194 | S88M | 0.379
195 | S88P | -0.895
196 | L89I | -0.0352
197 | E107S | -0.279
198 | E125I | -0.618
199 | L127C | 0.0207
200 | A129N | 0.865
201 | T157W | -0.456
202 | P168G | -0.0258
203 | V171G | 0.349
204 | D173I | 0.102
